T1: RHPN1, Q8TCX5
T1 sequence (Q8TCX5 508-602, limits assumed, looked up): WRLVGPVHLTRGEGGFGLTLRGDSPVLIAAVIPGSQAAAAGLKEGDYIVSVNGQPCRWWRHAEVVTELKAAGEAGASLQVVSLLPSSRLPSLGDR

T2: SHANK1, Q9Y566
T2 sequence (Q9Y566 658-767, limits assumed, looked up): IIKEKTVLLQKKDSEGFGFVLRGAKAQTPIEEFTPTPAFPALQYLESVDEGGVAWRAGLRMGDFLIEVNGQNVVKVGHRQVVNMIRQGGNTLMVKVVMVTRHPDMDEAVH

T3: CARD11, Q9BXL7
T3 sequence (Q9BXL7 662-765, limits assumed, looked up): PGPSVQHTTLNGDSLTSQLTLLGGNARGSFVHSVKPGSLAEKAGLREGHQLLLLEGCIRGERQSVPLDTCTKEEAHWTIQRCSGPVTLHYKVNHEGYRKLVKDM

T4: PARD3B_1, Q8TEW8
T4 sequence (Q8TEW8 196-299, limits assumed, looked up): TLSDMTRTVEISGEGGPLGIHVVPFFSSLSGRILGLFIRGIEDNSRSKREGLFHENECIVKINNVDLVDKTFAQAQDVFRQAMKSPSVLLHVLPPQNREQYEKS

T5: MPDZ_12, O75970
T5 sequence (O75970 1857-1958, limits assumed, looked up): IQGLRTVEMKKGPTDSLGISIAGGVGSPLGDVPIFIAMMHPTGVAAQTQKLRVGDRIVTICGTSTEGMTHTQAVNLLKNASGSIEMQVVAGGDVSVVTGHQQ

T6: GRIP1_4, Q9Y3R0
T6 sequence (Q9Y3R0 467-571, limits assumed, looked up): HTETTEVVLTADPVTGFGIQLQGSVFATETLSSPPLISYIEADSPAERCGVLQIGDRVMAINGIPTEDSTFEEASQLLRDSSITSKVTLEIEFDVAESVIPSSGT

T7: SIPA1L2, Q9P2F8
T7 sequence (Q9P2F8 945-1036, limits assumed, looked up): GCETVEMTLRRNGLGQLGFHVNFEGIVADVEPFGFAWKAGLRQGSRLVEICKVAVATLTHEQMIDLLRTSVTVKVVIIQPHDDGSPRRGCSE

T8: LIN7C, Q9NUP9
T8 sequence (Q9NUP9 88-185, limits assumed, looked up): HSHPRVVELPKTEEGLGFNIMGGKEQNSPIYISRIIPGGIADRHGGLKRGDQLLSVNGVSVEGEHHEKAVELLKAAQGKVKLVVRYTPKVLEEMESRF


biological target: GORASP1, Q9BQQ3; assay: holdup assay; set-up: key: below the threshold = too weak to quantify, mostly under pKd 3.1 to 4; conditions: plain residues with an end cap or a label only (N-terminal biotin on a linker: ado-ado)
Sequence (Q9BQQ3 1-208): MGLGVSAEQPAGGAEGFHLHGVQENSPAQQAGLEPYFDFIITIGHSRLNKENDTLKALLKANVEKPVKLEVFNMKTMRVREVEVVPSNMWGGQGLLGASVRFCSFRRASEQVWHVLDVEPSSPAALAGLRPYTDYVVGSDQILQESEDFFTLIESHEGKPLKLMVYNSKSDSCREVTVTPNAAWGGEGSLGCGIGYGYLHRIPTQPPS

pKd	Binder
below the threshold	TNSKQGETTV [FZD1, Q9UP38]
3.87	THHRKIHTRV [ZNF599, Q96NL3]

biological target: MAGI2_6, Q86UL8; assay: holdup assay; set-up: key: below the threshold = too weak to quantify, mostly under pKd 3.1 to 4; conditions: plain residues with an end cap or a label only (N-terminal biotin on a linker: ado-ado)
Sequence (Q86UL8 1141-1229): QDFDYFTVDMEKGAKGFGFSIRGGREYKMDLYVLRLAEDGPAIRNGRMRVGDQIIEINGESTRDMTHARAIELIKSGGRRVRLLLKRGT

pKd	Binder
4.03	TNSKQGETTV [FZD1, Q9UP38]
below the threshold	THHRKIHTRV [ZNF599, Q96NL3]

biological target: NHERF2_2, Q15599; assay: holdup assay; set-up: key: below the threshold = too weak to quantify, mostly under pKd 3.1 to 4; conditions: plain residues with an end cap or a label only (N-terminal biotin on a linker: ado-ado)
Sequence (Q15599 142-238): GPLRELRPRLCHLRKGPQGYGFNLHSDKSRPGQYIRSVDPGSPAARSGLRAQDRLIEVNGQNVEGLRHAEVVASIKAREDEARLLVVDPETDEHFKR

pKd	Binder
3.51	TNSKQGETTV [FZD1, Q9UP38]
below the threshold	THHRKIHTRV [ZNF599, Q96NL3]

biological target: LDB3, O75112; assay: holdup assay; set-up: key: below the threshold = too weak to quantify, mostly under pKd 3.1 to 4; conditions: plain residues with an end cap or a label only (N-terminal biotin on a linker: ado-ado)
Sequence (O75112 1-94): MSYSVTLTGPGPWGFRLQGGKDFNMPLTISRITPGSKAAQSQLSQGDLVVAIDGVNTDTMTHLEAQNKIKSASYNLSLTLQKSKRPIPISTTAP

pKd	Binder
below the threshold	TNSKQGETTV [FZD1, Q9UP38]
below the threshold	THHRKIHTRV [ZNF599, Q96NL3]

biological target: T1, RHPN1, Q8TCX5; assay: holdup assay; set-up: key: below the threshold = too weak to quantify, mostly under pKd 3.1 to 4; conditions: plain residues with an end cap or a label only (N-terminal biotin on a linker: ado-ado)

pKd	Binder
4.14	TNSKQGETTV [FZD1, Q9UP38]
4	THHRKIHTRV [ZNF599, Q96NL3]

biological target: Inadl_1, Q8NI35; assay: holdup assay; set-up: key: below the threshold = too weak to quantify, mostly under pKd 3.1 to 4; conditions: plain residues with an end cap or a label only (N-terminal biotin on a linker: ado-ado)
Sequence (Q8NI35 113-229): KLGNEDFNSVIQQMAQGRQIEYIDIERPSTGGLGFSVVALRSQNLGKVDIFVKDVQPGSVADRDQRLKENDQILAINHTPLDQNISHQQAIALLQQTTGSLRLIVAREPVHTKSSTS

pKd	Binder
below the threshold	TNSKQGETTV [FZD1, Q9UP38]
below the threshold	THHRKIHTRV [ZNF599, Q96NL3]

biological target: GRID2IP_2, A4D2P6; assay: holdup assay; set-up: key: below the threshold = too weak to quantify, mostly under pKd 3.1 to 4; conditions: plain residues with an end cap or a label only (N-terminal biotin on a linker: ado-ado)
Sequence (A4D2P6 272-370): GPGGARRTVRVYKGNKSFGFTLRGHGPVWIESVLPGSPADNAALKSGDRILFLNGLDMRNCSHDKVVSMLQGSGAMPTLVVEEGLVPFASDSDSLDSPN

pKd	Binder
3.79	TNSKQGETTV [FZD1, Q9UP38]
3.8	THHRKIHTRV [ZNF599, Q96NL3]

biological target: T2, SHANK1, Q9Y566; assay: holdup assay; set-up: key: below the threshold = too weak to quantify, mostly under pKd 3.1 to 4; conditions: plain residues with an end cap or a label only (N-terminal biotin on a linker: ado-ado)

pKd	Binder
3.57	TNSKQGETTV [FZD1, Q9UP38]
4.01	THHRKIHTRV [ZNF599, Q96NL3]

biological target: FRMPD2_2, Q68DX3; assay: holdup assay; set-up: key: below the threshold = too weak to quantify, mostly under pKd 3.1 to 4; conditions: plain residues with an end cap or a label only (N-terminal biotin on a linker: ado-ado)
Sequence (Q68DX3 944-1038): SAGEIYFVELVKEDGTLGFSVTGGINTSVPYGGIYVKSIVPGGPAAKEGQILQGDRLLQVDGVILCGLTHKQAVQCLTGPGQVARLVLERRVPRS

pKd	Binder
below the threshold	TNSKQGETTV [FZD1, Q9UP38]
3.52	THHRKIHTRV [ZNF599, Q96NL3]

biological target: T3, CARD11, Q9BXL7; assay: holdup assay; set-up: key: below the threshold = too weak to quantify, mostly under pKd 3.1 to 4; conditions: plain residues with an end cap or a label only (N-terminal biotin on a linker: ado-ado)

pKd	Binder
below the threshold	TNSKQGETTV [FZD1, Q9UP38]
below the threshold	THHRKIHTRV [ZNF599, Q96NL3]

biological target: HTRA2, O43464; assay: holdup assay; set-up: key: below the threshold = too weak to quantify, mostly under pKd 3.1 to 4; conditions: plain residues with an end cap or a label only (N-terminal biotin on a linker: ado-ado)
Sequence (O43464 355-458): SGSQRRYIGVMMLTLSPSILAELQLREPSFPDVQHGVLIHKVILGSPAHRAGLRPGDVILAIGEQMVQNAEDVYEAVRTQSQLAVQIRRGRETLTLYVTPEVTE

pKd	Binder
3.55	TNSKQGETTV [FZD1, Q9UP38]
below the threshold	THHRKIHTRV [ZNF599, Q96NL3]

biological target: SCRIB_3, Q14160; assay: holdup assay; set-up: key: below the threshold = too weak to quantify, mostly under pKd 3.1 to 4; conditions: plain residues with an end cap or a label only (N-terminal biotin on a linker: ado-ado)
Sequence (Q14160 999-1103): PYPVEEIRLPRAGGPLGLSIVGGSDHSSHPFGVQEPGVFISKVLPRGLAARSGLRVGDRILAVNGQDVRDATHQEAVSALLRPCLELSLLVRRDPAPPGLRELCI

pKd	Binder
4.38	TNSKQGETTV [FZD1, Q9UP38]
3.75	THHRKIHTRV [ZNF599, Q96NL3]

biological target: T4, PARD3B_1, Q8TEW8; assay: holdup assay; set-up: key: below the threshold = too weak to quantify, mostly under pKd 3.1 to 4; conditions: plain residues with an end cap or a label only (N-terminal biotin on a linker: ado-ado)

pKd	Binder
below the threshold	TNSKQGETTV [FZD1, Q9UP38]
below the threshold	THHRKIHTRV [ZNF599, Q96NL3]

biological target: GRIP2_4, Q9C0E4; assay: holdup assay; set-up: key: below the threshold = too weak to quantify, mostly under pKd 3.1 to 4; conditions: plain residues with an end cap or a label only (N-terminal biotin on a linker: ado-ado)
Sequence (Q9C0E4 446-548): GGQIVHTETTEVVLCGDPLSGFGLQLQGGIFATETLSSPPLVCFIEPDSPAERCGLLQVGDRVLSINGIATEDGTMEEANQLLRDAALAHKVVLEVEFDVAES

pKd	Binder
below the threshold	TNSKQGETTV [FZD1, Q9UP38]
below the threshold	THHRKIHTRV [ZNF599, Q96NL3]

biological target: NHERF4_4, Q86UT5; assay: holdup assay; set-up: key: below the threshold = too weak to quantify, mostly under pKd 3.1 to 4; conditions: plain residues with an end cap or a label only (N-terminal biotin on a linker: ado-ado)
Sequence (Q86UT5 464-550): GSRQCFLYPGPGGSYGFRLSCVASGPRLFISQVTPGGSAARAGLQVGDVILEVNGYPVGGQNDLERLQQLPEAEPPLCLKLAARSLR

pKd	Binder
3.95	TNSKQGETTV [FZD1, Q9UP38]
below the threshold	THHRKIHTRV [ZNF599, Q96NL3]

biological target: SNX27, Q96L92; assay: holdup assay; set-up: key: below the threshold = too weak to quantify, mostly under pKd 3.1 to 4; conditions: plain residues with an end cap or a label only (N-terminal biotin on a linker: ado-ado)

pKd	Binder
5.5	TNSKQGETTV [FZD1, Q9UP38]
4.31	THHRKIHTRV [ZNF599, Q96NL3]

biological target: Inadl_2, Q8NI35; assay: holdup assay; set-up: key: below the threshold = too weak to quantify, mostly under pKd 3.1 to 4; conditions: plain residues with an end cap or a label only (N-terminal biotin on a linker: ado-ado)
Sequence (Q8NI35 238-335): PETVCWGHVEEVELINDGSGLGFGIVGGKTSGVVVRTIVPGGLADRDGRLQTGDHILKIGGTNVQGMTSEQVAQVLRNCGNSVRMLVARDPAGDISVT

pKd	Binder
below the threshold	TNSKQGETTV [FZD1, Q9UP38]
below the threshold	THHRKIHTRV [ZNF599, Q96NL3]

biological target: T5, MPDZ_12, O75970; assay: holdup assay; set-up: key: below the threshold = too weak to quantify, mostly under pKd 3.1 to 4; conditions: plain residues with an end cap or a label only (N-terminal biotin on a linker: ado-ado)

pKd	Binder
below the threshold	TNSKQGETTV [FZD1, Q9UP38]
below the threshold	THHRKIHTRV [ZNF599, Q96NL3]

biological target: T6, GRIP1_4, Q9Y3R0; assay: holdup assay; set-up: key: below the threshold = too weak to quantify, mostly under pKd 3.1 to 4; conditions: plain residues with an end cap or a label only (N-terminal biotin on a linker: ado-ado)

pKd	Binder
below the threshold	TNSKQGETTV [FZD1, Q9UP38]
below the threshold	THHRKIHTRV [ZNF599, Q96NL3]

biological target: T7, SIPA1L2, Q9P2F8; assay: holdup assay; set-up: key: below the threshold = too weak to quantify, mostly under pKd 3.1 to 4; conditions: plain residues with an end cap or a label only (N-terminal biotin on a linker: ado-ado)

pKd	Binder
below the threshold	TNSKQGETTV [FZD1, Q9UP38]
below the threshold	THHRKIHTRV [ZNF599, Q96NL3]

biological target: Inadl_6, Q8NI35; assay: holdup assay; set-up: key: below the threshold = too weak to quantify, mostly under pKd 3.1 to 4; conditions: plain residues with an end cap or a label only (N-terminal biotin on a linker: ado-ado)
Sequence (Q8NI35 1058-1167): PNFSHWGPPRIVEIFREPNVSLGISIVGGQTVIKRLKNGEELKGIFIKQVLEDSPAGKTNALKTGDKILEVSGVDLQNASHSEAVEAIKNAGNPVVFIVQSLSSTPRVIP

pKd	Binder
below the threshold	TNSKQGETTV [FZD1, Q9UP38]
below the threshold	THHRKIHTRV [ZNF599, Q96NL3]

biological target: T8, LIN7C, Q9NUP9; assay: holdup assay; set-up: key: below the threshold = too weak to quantify, mostly under pKd 3.1 to 4; conditions: plain residues with an end cap or a label only (N-terminal biotin on a linker: ado-ado)

pKd	Binder
4.45	TNSKQGETTV [FZD1, Q9UP38]
below the threshold	THHRKIHTRV [ZNF599, Q96NL3]

biological target: MAGI2_2, Q86UL8; assay: holdup assay; set-up: key: below the threshold = too weak to quantify, mostly under pKd 3.1 to 4; conditions: plain residues with an end cap or a label only (N-terminal biotin on a linker: ado-ado)
Sequence (Q86UL8 410-522): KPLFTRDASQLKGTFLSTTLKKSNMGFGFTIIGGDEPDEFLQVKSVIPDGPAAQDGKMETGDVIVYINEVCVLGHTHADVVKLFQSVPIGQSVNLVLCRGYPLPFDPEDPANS

pKd	Binder
4.38	TNSKQGETTV [FZD1, Q9UP38]
5.78	THHRKIHTRV [ZNF599, Q96NL3]

biological target: DLG4_1, P78352; assay: holdup assay; set-up: key: below the threshold = too weak to quantify, mostly under pKd 3.1 to 4; conditions: plain residues with an end cap or a label only (N-terminal biotin on a linker: ado-ado)
Sequence (P78352 62-152): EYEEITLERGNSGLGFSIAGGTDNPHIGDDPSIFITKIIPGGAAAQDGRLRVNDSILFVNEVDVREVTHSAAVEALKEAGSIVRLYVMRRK

pKd	Binder
4.7	TNSKQGETTV [FZD1, Q9UP38]
4.98	THHRKIHTRV [ZNF599, Q96NL3]

biological target: LNX1_3, Q8TBB1; assay: holdup assay; set-up: key: below the threshold = too weak to quantify, mostly under pKd 3.1 to 4; conditions: plain residues with an end cap or a label only (N-terminal biotin on a linker: ado-ado)
Sequence (Q8TBB1 500-596): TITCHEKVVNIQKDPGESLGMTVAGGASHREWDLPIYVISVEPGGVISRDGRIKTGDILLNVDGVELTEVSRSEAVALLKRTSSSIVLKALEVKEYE

pKd	Binder
below the threshold	TNSKQGETTV [FZD1, Q9UP38]
below the threshold	THHRKIHTRV [ZNF599, Q96NL3]

biological target: FRMPD4, Q14CM0; assay: holdup assay; set-up: key: below the threshold = too weak to quantify, mostly under pKd 3.1 to 4; conditions: plain residues with an end cap or a label only (N-terminal biotin on a linker: ado-ado)
Sequence (Q14CM0 67-160): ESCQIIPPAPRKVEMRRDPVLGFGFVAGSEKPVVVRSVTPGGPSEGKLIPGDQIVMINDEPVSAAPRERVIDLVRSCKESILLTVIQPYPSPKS

pKd	Binder
below the threshold	TNSKQGETTV [FZD1, Q9UP38]
below the threshold	THHRKIHTRV [ZNF599, Q96NL3]

biological target: PTPN3, P26045; assay: holdup assay; set-up: key: below the threshold = too weak to quantify, mostly under pKd 3.1 to 4; conditions: plain residues with an end cap or a label only (N-terminal biotin on a linker: ado-ado)
Sequence (P26045 505-587): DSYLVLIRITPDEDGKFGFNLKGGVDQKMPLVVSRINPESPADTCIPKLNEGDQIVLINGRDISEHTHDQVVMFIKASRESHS

pKd	Binder
4.79	TNSKQGETTV [FZD1, Q9UP38]
below the threshold	THHRKIHTRV [ZNF599, Q96NL3]

biological target: DLG1_3, Q12959; assay: holdup assay; set-up: key: below the threshold = too weak to quantify, mostly under pKd 3.1 to 4; conditions: plain residues with an end cap or a label only (N-terminal biotin on a linker: ado-ado)
Sequence (Q12959 457-571): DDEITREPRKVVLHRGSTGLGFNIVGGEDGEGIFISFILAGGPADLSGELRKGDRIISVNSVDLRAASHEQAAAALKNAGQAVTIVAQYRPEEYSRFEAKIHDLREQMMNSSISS

pKd	Binder
4.13	TNSKQGETTV [FZD1, Q9UP38]
4.15	THHRKIHTRV [ZNF599, Q96NL3]

biological target: NHERF4_1, Q86UT5-2; assay: holdup assay; set-up: key: below the threshold = too weak to quantify, mostly under pKd 3.1 to 4; conditions: plain residues with an end cap or a label only (N-terminal biotin on a linker: ado-ado)
Sequence (Q86UT5 other isoform, or with tags, fused parts or gaps): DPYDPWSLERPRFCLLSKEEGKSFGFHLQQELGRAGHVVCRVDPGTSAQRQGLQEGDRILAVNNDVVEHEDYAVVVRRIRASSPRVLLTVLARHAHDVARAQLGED

pKd	Binder
below the threshold	TNSKQGETTV [FZD1, Q9UP38]
3.72	THHRKIHTRV [ZNF599, Q96NL3]

Source: article PMC9482650, “Quantitative fragmentomics allow affinity mapping of interactomes” (Nature Communications, 2022)
